Patent publication US20260078171A1 (INVIVYD, published 2026)
Substitutions are numbered along the chain they refer to.

Experiments:
[1] = molecular target: T1, WT SARS-CoV-2 spike S1 subunit (SARS-CoV-2, UniProt P0DTC2 16-685); assay: bio-layer interferometry (BLI, Octet), monovalent Fab affinity
[2] = molecular target: SARS-CoV spike S1 subunit (SARS-CoV, UniProt P59594 14-667); assay: BLI (Octet), Fab, monovalent
[3] = molecular target: T1, WT SARS-CoV-2 spike S1 subunit; assay: BLI (Octet), Fab, monovalent

B1: ADI-58125 (Fab, V domains shown)
VH: EVQLVESGGGLVKPGGSLRLSCAASGFTFSSYYMNWVRQAPGKGLEWVSSISEDGYSTYYPDSLKGRFTISRDSAKNSLYLQMNSLRADDTAVYYCARDFSGHTAWAGTGFEYWGQGTLVTVSS
VL: QSVLTQPPSVSGAPGQRITISCTGSSSNIGAGYDVHWYQQLPGTAPKLLIYGSSSRNSGVPDRFSGSKSGTSASLAITGLQAEDEADYYCQSYDSSLSVLYTFGTGTKVTVLG
[1]
  Kd: 0.6 nM

B2: VYD222 Fab (Fab, V domains shown)
VH: B1 VH with S30G, Y33E, S101G, H103D, E112T
VL: QSVLTQPPSVSGAPGQRITISCTGSSSNIGAGYDVHWYQQLPGTAPKLLIYGSSSRNYGVPDRFSGSKSGTSASLAITGLQAEDEADYYCQSYDSDLGVLYTFGTGTKVTVL
[2]
  Kd: 0.478 nM
[3]
  Kd: 2.14 nM
